Where two headings read alike, the source gives them in different places.

In experiment [1] the target is T1, rI-FABP (SEQ ID NO: 3) variant BL22P1B11, MGI-KR14-14R 18L 25C 27A 38V 60R 73F 106L 115R 117D, SEQ ID NO: 35 (Rattus norvegicus, UniProt P02693, A74F/K101R/K126R/K17R/K21R/K28A/K30R/K38R/K47R/K51R/K89R/K8R/K93R/K95R/L39V/L73A/M19L/Q116R/R107L/V26C/V61R/Y118D/Y15R).
T1 construct: made in house
The experiment is classed as binding.

The format of experiment [2] is binding.
The mark [3] stands for this setting: Table 6, lysine labeled probes, Primary Fluor Acrylodan.
The mark [4] stands for this setting: Table 6, Primary Fluor Acrylodan.
[5] abbreviates: Table 6, Primary Fluor Biotium CF750 SE.
Setting [6] is: Table 6, Primary Fluor Kodak X-Sight 670 LSS dye.
[7] abbreviates: Table 6, Primary Fluor LiCor IRDye 680 LT.
Where [8] appears, read: Table 6, Primary Fluor LiCor IRDye 700DX.

T1 sequence (P02693 with tags, fused parts or gaps with the stated changes): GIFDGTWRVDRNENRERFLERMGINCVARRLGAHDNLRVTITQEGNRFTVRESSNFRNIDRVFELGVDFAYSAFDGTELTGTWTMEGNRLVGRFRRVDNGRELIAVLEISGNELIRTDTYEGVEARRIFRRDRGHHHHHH

In experiment [1], `CC/C=C\C/C=C\C/C=C\CCCCCCCC(=O)O` [Linolenate 18:3 (n-3), Linolenate] yielded a Kd of 3460 nM.

B1: BL8P20 G3: SEQ 3 mutein: 18L, 38M, 60F, 73F, 106T, 115R, 117E (protein)
chain: AFDGTWKVDRNENYEKFLEKMGINVVKRKLGAHDNLKMTITQEGNKFTVKESSNFRNIDFVFELGVDFAYSAFDGTELTGTWTMEGNKLVGKFKRVDNGKELIAVTEISGNELIRTETYEGVEAKRIFKKDRGHHHHHH
modifications: acrylodan labeled; rat intestinal fatty acid binding protein with substitution of Xaa at one or more of 14, 18, 23, 25, 27, 31, 36, 38, 55, 60, 72, 73, 74, 78, 102, 104, 106, 115 and 117; rat intestinal fatty acid binding protein in which one amino acid residue may be substituted with cysteine or lysine; optional 6His tag at N terminus; Xaa=any amino acid
B1: binding in experiment [2] (setting [3]) was characterised by a dissociation constant (Kd) of 2310 nM. For the same molecule, the Is in experiment [2] (setting [4]) stood at 0.09.

B2: L1P1 C 12: SEQ 3 mutein: 38I 72W 117W (protein)
chain: AFDGTWKVDRNENYEKFMEKMGINVVKRKLGAHDNLKITITQEGNKFTVKESSNFRNIDVVFELGVDFAYSWADGTELTGTWTMEGNKLVGKFKRVDNGKELIAVREISGNELIQTWTYEGVEAKRIFKKDRGHHHHHH
modifications: acrylodan label; rat intestinal fatty acid binding protein with substitution of Xaa at one or more of 14, 18, 23, 25, 27, 31, 36, 38, 55, 60, 72, 73, 74, 78, 102, 104, 106, 115 and 117; rat intestinal fatty acid binding protein in which one amino acid residue may be substituted with cysteine or lysine; optional 6His tag at N terminus; Xaa=any amino acid
B2 came in with a Kd in experiment [2] (setting [3]) of 35.8 nM. In addition, in experiment [2] (setting [4]), the Is turned out to be 0.11.

B3: BL8P9 G9: SEQ 3 mutein: 18L, 38A, 73F, 106V, 115R, 117D (protein)
chain: AFDGTWKVDRNENYEKFLEKMGINVVKRKLGAHDNLKATITQEGNKFTVKESSNFRNIDVVFELGVDFAYSAFDGTELTGTWTMEGNKLVGKFKRVDNGKELIAVVEISGNELIRTDTYEGVEAKRIFKKDRGHHHHHH
modifications: acrylodan labeled; rat intestinal fatty acid binding protein with substitution of Xaa at one or more of 14, 18, 23, 25, 27, 31, 36, 38, 55, 60, 72, 73, 74, 78, 102, 104, 106, 115 and 117; rat intestinal fatty acid binding protein in which one amino acid residue may be substituted with cysteine or lysine; optional 6His tag at N terminus; Xaa=any amino acid
As for B3, the Kd in experiment [2] (setting [3]) is 1050 nM. The molecule further returned an Is in experiment [2] (setting [4]) of 0.29.

B4: BL8P21 E8: SEQ 3 mutein: 18L 38I 60H 73F 106D 115R 117E (protein)
chain: AFDGTWKVDRNENYEKFLEKMGINVVKRKLGAHDNLKITITQEGNKFTVKESSNFRNIDHVFELGVDFAYSAFDGTELTGTWTMEGNKLVGKFKRVDNGKELIAVDEISGNELIRTETYEGVEAKRIFKKDRGHHHHHH
modifications: acrylodan labeled; rat intestinal fatty acid binding protein with substitution of Xaa at one or more of 14, 18, 23, 25, 27, 31, 36, 38, 55, 60, 72, 73, 74, 78, 102, 104, 106, 115 and 117; rat intestinal fatty acid binding protein in which one amino acid residue may be substituted with cysteine or lysine; optional 6His tag at N terminus; Xaa=any amino acid
As for B4, binding in experiment [2] (setting [3]) was put at a Kd of 3220 nM. In experiment [2] (setting [4]), the Is came out at 0.28.

B5: L1P14 D6: SEQ 3 mutein: 14M 72V 117W (protein)
chain: AFDGTWKVDRNENMEKFMEKMGINVVKRKLGAHDNLKLTITQEGNKFTVKESSNFRNIDVVFELGVDFAYSVADGTELTGTWTMEGNKLVGKFKRVDNGKELIAVREISGNELIQTWTYEGVEAKRIFKKDRGHHHHHH
modifications: acrylodan label; rat intestinal fatty acid binding protein with substitution of Xaa at one or more of 14, 18, 23, 25, 27, 31, 36, 38, 55, 60, 72, 73, 74, 78, 102, 104, 106, 115 and 117; rat intestinal fatty acid binding protein in which one amino acid residue may be substituted with cysteine or lysine; optional 6His tag at N terminus; Xaa=any amino acid
As for B5, in experiment [2] (setting [3]), the Kd turned out to be 309 nM. Further, in experiment [2] (setting [4]), the Is is 0.04.

B6: L1P1 B4: SEQ 3 mutein: 14I 72W 117W (protein)
chain: AFDGTWKVDRNENIEKFMEKMGINVVKRKLGAHDNLKLTITQEGNKFTVKESSNFRNIDVVFELGVDFAYSWADGTELTGTWTMEGNKLVGKFKRVDNGKELIAVREISGNELIQTWTYEGVEAKRIFKKDRGHHHHHH
modifications: acrylodan label; rat intestinal fatty acid binding protein with substitution of Xaa at one or more of 14, 18, 23, 25, 27, 31, 36, 38, 55, 60, 72, 73, 74, 78, 102, 104, 106, 115 and 117; rat intestinal fatty acid binding protein in which one amino acid residue may be substituted with cysteine or lysine; optional 6His tag at N terminus; Xaa=any amino acid
Molecule B6 returned a Kd in experiment [2] (setting [3]) of 711 nM. In experiment [2] (setting [4]), this molecule returned an Is of 0.

B7: BL22P1B11 - 25K: SEQ 3 mutein: MGI - KR14 - 14R 18L 25K 27A 38V 60R 73F 106L 115R 117D (protein)
chain: AFDGTWKVDRNENREKFLEKMGINKVARKLGAHDNLKVTITQEGNKFTVKESSNFRNIDRVFELGVDFAYSAFDGTELTGTWTMEGNKLVGKFKRVDNGKELIAVLEISGNELIRTDTYEGVEAKRIFKKDRGHHHHHH
modifications: BL22P1B11; Tyr->Arg; Met-> Leu; Val-> Cys; Lys-> Ala; Leu-> Val; Val-> Arg; Leu-> Ala; Ala-> Phe; Arg-> Leu; Gln-> Arg; Tyr -> Asp; 6His tag at N terminus
For the molecule B7, the Is in experiment [2] (setting [5]) is on record as 0.19; in experiment [2] (setting [6]), 0.61; in experiment [2] (setting [7]), 0.67; in experiment [2] (setting [8]), 0.14. The Kd in experiment [2] (setting [5]) came out at 9500 nM; in experiment [2] (setting [6]), 700 nM; in experiment [2] (setting [7]) it was 239 nM; in experiment [2] (setting [8]), 80 nM.

B8: BL8P9 C9: SEQ 3 mutein: 18L, 38F, 60F, 73F, 106D, 115R, 117R (protein)
chain: AFDGTWKVDRNENYEKFLEKMGINVVKRKLGAHDNLKFTITQEGNKFTVKESSNFRNIDFVFELGVDFAYSAFDGTELTGTWTMEGNKLVGKFKRVDNGKELIAVDEISGNELIRTRTYEGVEAKRIFKKDRGHHHHHH
modifications: acrylodan labeled; rat intestinal fatty acid binding protein with substitution of Xaa at one or more of 14, 18, 23, 25, 27, 31, 36, 38, 55, 60, 72, 73, 74, 78, 102, 104, 106, 115 and 117; rat intestinal fatty acid binding protein in which one amino acid residue may be substituted with cysteine or lysine; optional 6His tag at N terminus; Xaa=any amino acid
The molecule B8 gave a Kd in experiment [2] (setting [3]) of 723 nM. Moreover, the Is in experiment [2] (setting [4]) is reported as 0.00.

For the origin of these results see patent publication US10295551B2, “Development and use of fluorescent probes of unbound bilirubin” (Alan Marc Kleinfeld, priority 2011, dated 2019).
